Positions count from the first letter of the chain named. Bridges are numbered along the chain shown (N, C = ends). [ ]: non-standard residue; d: D form. S5 = C=CCCC[C@](C)(N)C(=O)O

For eleven molecules, IC50 results are on record in patent US20170266254A1 (AILERON THERAPEUTICS, published 2017).

The assay concerns the target T1, C-terminally 6x Histidine-tagged Beta-Catenin (aa 134-668, 59 KD) (UniProt P35222 134-668).
T1 construct: range 134-668; Armadillo repeat region
T1 sequence: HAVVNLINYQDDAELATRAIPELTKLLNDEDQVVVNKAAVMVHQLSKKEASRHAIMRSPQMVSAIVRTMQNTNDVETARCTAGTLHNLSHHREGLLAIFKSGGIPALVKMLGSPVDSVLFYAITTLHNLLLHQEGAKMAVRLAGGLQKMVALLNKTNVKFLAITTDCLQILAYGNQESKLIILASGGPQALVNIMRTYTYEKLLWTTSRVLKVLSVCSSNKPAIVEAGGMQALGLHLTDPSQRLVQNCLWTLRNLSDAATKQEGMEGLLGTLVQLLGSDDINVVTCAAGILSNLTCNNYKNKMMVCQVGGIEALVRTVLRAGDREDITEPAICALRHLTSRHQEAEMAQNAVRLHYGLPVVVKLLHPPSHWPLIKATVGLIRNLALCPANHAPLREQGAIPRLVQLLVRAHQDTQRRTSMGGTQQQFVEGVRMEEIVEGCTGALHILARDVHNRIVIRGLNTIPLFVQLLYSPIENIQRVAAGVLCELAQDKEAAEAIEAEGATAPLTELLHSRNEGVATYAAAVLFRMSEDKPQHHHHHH
As to the kind of experiment: competitive fluorescence polarization, FAM-labelled linear probe as competitor, His-tagged beta-catenin 134-668. As for the experimental part: The following experiments are performed at room temperature unless otherwise noted. First, an assay buffer is prepared composed of 25 mM Tris-Hcl pH 7.5, 200 mM Sodium Chloride, and 5 mM CHAPS. Next, 1M DTT is added to assay buffer to a final concentration of 2 mM. […] Forty μl of this protein stock is added to all but six wells of a 96 well plate (which will serve as the free peptide and Blank). Test competitor peptides are diluted from 1 mM DMSO stocks to 2× working stocks in assay buffer. Further dilutions are made in assay buffer-DMSO as to maintain a constant DMSO concentration in all wells. The dilution is carried out such that the peptides have a working concentration range of 40 μM-0.7 μM (2×). As a benchmark, a linear, non-crosslinked peptide competitor is prepared as above but with a working concentration range of 13-0.7 μM. Fifty μl of the competitor 2× stocks are added to the 40 μl of protein solution previously transferred into the assay 96 well plate. Next, a 10× stock of the fluorescent probe is prepared. The probe is identical to the linear benchmark peptide except for the n-terminal conjugation of a FAM flourophore with Beta-Alanine spacer. A 1 mM DMSO stock of the probe is serially diluted to a final concentration of 25 nM (10×) and 10 μl of this stock is added to all wells except for those that will serve as the blank. The assay plate is stored in the dark and the reaction is allowed to run at room temperature for three hours. The reaction is then read on a Biotek Synergy 2 with the following settings: 100 ms delay, 40 measurements per well, with excitation filters of […], and emission filters of […]. Data is then analyzed in Graphpad Prism.
On the technique in general: Polarisation of emitted light reports the rotation of a fluorescent probe.

B1: SP13 (peptide)
peptide: Ac-SAERDLADVKS[S5]LVN[S5]SEKR-NH2
modifications: staple 12-16
SMILES: CC(=O)N[C@@H](CO)C(=O)N[C@@H](C)C(=O)N[C@@H](CCC(=O)O)C(=O)N[C@@H](CCCNC(=N)N)C(=O)N[C@@H](CC(=O)O)C(=O)N[C@@H](CC(C)C)C(=O)N[C@@H](C)C(=O)N[C@@H](CC(=O)O)C(=O)N[C@H](C(=O)N[C@@H](CCCCN)C(=O)N[C@@H](CO)C(=O)N[C@@]1(C)CCCC=CCCC[C@@](C)(C(=O)N[C@@H](CO)C(=O)N[C@@H](CCC(=O)O)C(=O)N[C@@H](CCCCN)C(=O)N[C@@H](CCCNC(=N)N)C(N)=O)NC(=O)[C@H](CC(N)=O)NC(=O)[C@H](C(C)C)NC(=O)[C@H](CC(C)C)NC1=O)C(C)C
In general, IC50 refers to the concentration that inhibits the measured activity by half. Take B1: the IC50 is at least 100000 nM.

B2: SP23 (peptide)
peptide: Ac-SAE[S5]DLA[S5]VKSSLVNESEKR-NH2
modifications: staple 4-8
SMILES: CC(=O)N[C@@H](CO)C(=O)N[C@@H](C)C(=O)N[C@@H](CCC(=O)O)C(=O)N[C@@]1(C)CCCC=CCCC[C@@](C)(C(=O)N[C@H](C(=O)N[C@@H](CCCCN)C(=O)N[C@@H](CO)C(=O)N[C@@H](CO)C(=O)N[C@@H](CC(C)C)C(=O)N[C@H](C(=O)N[C@@H](CC(N)=O)C(=O)N[C@@H](CCC(=O)O)C(=O)N[C@@H](CO)C(=O)N[C@@H](CCC(=O)O)C(=O)N[C@@H](CCCCN)C(=O)N[C@@H](CCCNC(=N)N)C(N)=O)C(C)C)C(C)C)NC(=O)[C@H](C)NC(=O)[C@H](CC(C)C)NC(=O)[C@H](CC(=O)O)NC1=O
For the molecule B2, the IC50 was at least 100000 nM.

B3: SP37 (peptide)
peptide: LGANDELISFADEGAQEEKSSNNSSAARDLADVKSSLV
modifications: not fully specified; N-terminal acetyl; C-terminal amide; $ = (S)-alpha-(2'-pentenyl)alanine at positions 11 and 15 (first crosslink) and 27 and 31 (second crosslink), each pair joined by an all-carbon crosslinker with one double bond
For the molecule B3, the IC50 was determined as 56 nM.

B4: SP29 (peptide)
peptide: Ac-LGANDELISFKDEGE[S5]EEK[S5]SNNSSAERDLADVKSSLV-NH2
modifications: staple 16-20
SMILES: CC[C@H](C)[C@H](NC(=O)[C@H](CC(C)C)NC(=O)[C@H](CCC(=O)O)NC(=O)[C@H](CC(=O)O)NC(=O)[C@H](CC(N)=O)NC(=O)[C@H](C)NC(=O)CNC(=O)[C@H](CC(C)C)NC(C)=O)C(=O)N[C@@H](CO)C(=O)N[C@@H](Cc1ccccc1)C(=O)N[C@@H](CCCCN)C(=O)N[C@@H](CC(=O)O)C(=O)N[C@@H](CCC(=O)O)C(=O)NCC(=O)N[C@@H](CCC(=O)O)C(=O)N[C@@]1(C)CCCC=CCCC[C@@](C)(C(=O)N[C@@H](CO)C(=O)N[C@@H](CC(N)=O)C(=O)N[C@@H](CC(N)=O)C(=O)N[C@@H](CO)C(=O)N[C@@H](CO)C(=O)N[C@@H](C)C(=O)N[C@@H](CCC(=O)O)C(=O)N[C@@H](CCCNC(=N)N)C(=O)N[C@@H](CC(=O)O)C(=O)N[C@@H](CC(C)C)C(=O)N[C@@H](C)C(=O)N[C@@H](CC(=O)O)C(=O)N[C@H](C(=O)N[C@@H](CCCCN)C(=O)N[C@@H](CO)C(=O)N[C@@H](CO)C(=O)N[C@@H](CC(C)C)C(=O)N[C@H](C(N)=O)C(C)C)C(C)C)NC(=O)[C@H](CCCCN)NC(=O)[C@H](CCC(=O)O)NC(=O)[C@H](CCC(=O)O)NC1=O
As to B4, the IC50 turned out to be 223 nM.

B5: SP27 (peptide)
peptide: Ac-LGANDELISFK[S5]EGE[S5]EEKSSNNSSAERDLADVKSSLV-NH2
modifications: staple 12-16
SMILES: CC[C@H](C)[C@H](NC(=O)[C@H](CC(C)C)NC(=O)[C@H](CCC(=O)O)NC(=O)[C@H](CC(=O)O)NC(=O)[C@H](CC(N)=O)NC(=O)[C@H](C)NC(=O)CNC(=O)[C@H](CC(C)C)NC(C)=O)C(=O)N[C@@H](CO)C(=O)N[C@@H](Cc1ccccc1)C(=O)N[C@@H](CCCCN)C(=O)N[C@@]1(C)CCCC=CCCC[C@@](C)(C(=O)N[C@@H](CCC(=O)O)C(=O)N[C@@H](CCC(=O)O)C(=O)N[C@@H](CCCCN)C(=O)N[C@@H](CO)C(=O)N[C@@H](CO)C(=O)N[C@@H](CC(N)=O)C(=O)N[C@@H](CC(N)=O)C(=O)N[C@@H](CO)C(=O)N[C@@H](CO)C(=O)N[C@@H](C)C(=O)N[C@@H](CCC(=O)O)C(=O)N[C@@H](CCCNC(=N)N)C(=O)N[C@@H](CC(=O)O)C(=O)N[C@@H](CC(C)C)C(=O)N[C@@H](C)C(=O)N[C@@H](CC(=O)O)C(=O)N[C@H](C(=O)N[C@@H](CCCCN)C(=O)N[C@@H](CO)C(=O)N[C@@H](CO)C(=O)N[C@@H](CC(C)C)C(=O)N[C@H](C(N)=O)C(C)C)C(C)C)NC(=O)[C@H](CCC(=O)O)NC(=O)CNC(=O)[C@H](CCC(=O)O)NC1=O
Take B5: the IC50 worked out at 158 nM.

B6: SP28 (peptide)
peptide: Ac-LGANDELISFKDEG[S5]QEE[S5]SSNNSSAERDLADVKSSLV-NH2
modifications: staple 15-19
SMILES: CC[C@H](C)[C@H](NC(=O)[C@H](CC(C)C)NC(=O)[C@H](CCC(=O)O)NC(=O)[C@H](CC(=O)O)NC(=O)[C@H](CC(N)=O)NC(=O)[C@H](C)NC(=O)CNC(=O)[C@H](CC(C)C)NC(C)=O)C(=O)N[C@@H](CO)C(=O)N[C@@H](Cc1ccccc1)C(=O)N[C@@H](CCCCN)C(=O)N[C@@H](CC(=O)O)C(=O)N[C@@H](CCC(=O)O)C(=O)NCC(=O)N[C@@]1(C)CCCC=CCCC[C@@](C)(C(=O)N[C@@H](CO)C(=O)N[C@@H](CO)C(=O)N[C@@H](CC(N)=O)C(=O)N[C@@H](CC(N)=O)C(=O)N[C@@H](CO)C(=O)N[C@@H](CO)C(=O)N[C@@H](C)C(=O)N[C@@H](CCC(=O)O)C(=O)N[C@@H](CCCNC(=N)N)C(=O)N[C@@H](CC(=O)O)C(=O)N[C@@H](CC(C)C)C(=O)N[C@@H](C)C(=O)N[C@@H](CC(=O)O)C(=O)N[C@H](C(=O)N[C@@H](CCCCN)C(=O)N[C@@H](CO)C(=O)N[C@@H](CO)C(=O)N[C@@H](CC(C)C)C(=O)N[C@H](C(N)=O)C(C)C)C(C)C)NC(=O)[C@H](CCC(=O)O)NC(=O)[C@H](CCC(=O)O)NC(=O)[C@H](CCC(N)=O)NC1=O
B6: the IC50 was found to be 158 nM.

B7: SP30 (peptide)
peptide: Ac-LGANDELISFKDEGEQEEKSSENSSA[S5]RDL[S5]DVKSSLV-NH2
modifications: staple 27-31
SMILES: CC[C@H](C)[C@H](NC(=O)[C@H](CC(C)C)NC(=O)[C@H](CCC(=O)O)NC(=O)[C@H](CC(=O)O)NC(=O)[C@H](CC(N)=O)NC(=O)[C@H](C)NC(=O)CNC(=O)[C@H](CC(C)C)NC(C)=O)C(=O)N[C@@H](CO)C(=O)N[C@@H](Cc1ccccc1)C(=O)N[C@@H](CCCCN)C(=O)N[C@@H](CC(=O)O)C(=O)N[C@@H](CCC(=O)O)C(=O)NCC(=O)N[C@@H](CCC(=O)O)C(=O)N[C@@H](CCC(N)=O)C(=O)N[C@@H](CCC(=O)O)C(=O)N[C@@H](CCC(=O)O)C(=O)N[C@@H](CCCCN)C(=O)N[C@@H](CO)C(=O)N[C@@H](CO)C(=O)N[C@@H](CCC(=O)O)C(=O)N[C@@H](CC(N)=O)C(=O)N[C@@H](CO)C(=O)N[C@@H](CO)C(=O)N[C@@H](C)C(=O)N[C@@]1(C)CCCC=CCCC[C@@](C)(C(=O)N[C@@H](CC(=O)O)C(=O)N[C@H](C(=O)N[C@@H](CCCCN)C(=O)N[C@@H](CO)C(=O)N[C@@H](CO)C(=O)N[C@@H](CC(C)C)C(=O)N[C@H](C(N)=O)C(C)C)C(C)C)NC(=O)[C@H](CC(C)C)NC(=O)[C@H](CC(=O)O)NC(=O)[C@H](CCCNC(=N)N)NC1=O
Take B7: the IC50 came to 98 nM.

B8: SP26 (peptide)
peptide: B3 peptide with A27E
modifications: not fully specified; N-terminal acetyl; C-terminal amide; $ = (S)-alpha-(2'-pentenyl)alanine at positions 11 and 15, joined by an all-carbon crosslinker with one double bond
B8: the IC50 came out at 42 nM.

B9: SP24 (peptide)
peptide: Ac-LGANAELISFKDEGEQEEKSSENSSAERDLADVKSSLV-NH2
notes: Linear, not crosslinked; differs from SP14 by Asp to Ala at the fifth residue of the peptide
On to B9, for which the IC50 is at least 100000 nM.

B10: SP14 (peptide)
peptide: Ac-LGANDELISFKDEGEQEEKSSENSSAERDLADVKSSLV-NH2
notes: Linear, not crosslinked
Take B10: the half-maximal inhibitory concentration (IC50) is 95 nM.

B11: SP25 (peptide)
peptide: Ac-LGANAELISFKDEGEQEEKSSENSSAERDLADAKSSAV-NH2
notes: Linear, not crosslinked; differs from SP14 by Ala at peptide positions 5, 33 and 37
With B11, the IC50 was at least 100000 nM.
